Reference: article PMC4245980

Assays:
Experiment in all cases: EMSA
McbR E93S/R139F = McbR E93S/R139F (Escherichia coli, UniProt P76114 1-221, E93S;R139F)
McbR R89A/E93A/R139A = McbR R89A/E93A/R139A (Escherichia coli, UniProt P76114 1-221, R89A;E93A;R139A)
McbR WT = McbR WT (Escherichia coli, UniProt P76114 1-221)

Measured: binding result

B1: PyciGECO (dsDNA)
DNA 1: AATTGTTAATATATCCAGAATGTTCCTCAAAATATATTTTCCCTCTAT
DNA 2: ATAGAGGGAAAATATATTTTGAGGAACATTCTGGATATATTAACAATT
binds: all assays above
